Experimental data reported in paper PMC5707354 (Nature Communications, 2017).
One block for each molecule: values may come before it.

How the values were obtained:
[1] = molecular target: T1, NDP52 (Human, UniProt Q13137 1-446)
T1 sequence: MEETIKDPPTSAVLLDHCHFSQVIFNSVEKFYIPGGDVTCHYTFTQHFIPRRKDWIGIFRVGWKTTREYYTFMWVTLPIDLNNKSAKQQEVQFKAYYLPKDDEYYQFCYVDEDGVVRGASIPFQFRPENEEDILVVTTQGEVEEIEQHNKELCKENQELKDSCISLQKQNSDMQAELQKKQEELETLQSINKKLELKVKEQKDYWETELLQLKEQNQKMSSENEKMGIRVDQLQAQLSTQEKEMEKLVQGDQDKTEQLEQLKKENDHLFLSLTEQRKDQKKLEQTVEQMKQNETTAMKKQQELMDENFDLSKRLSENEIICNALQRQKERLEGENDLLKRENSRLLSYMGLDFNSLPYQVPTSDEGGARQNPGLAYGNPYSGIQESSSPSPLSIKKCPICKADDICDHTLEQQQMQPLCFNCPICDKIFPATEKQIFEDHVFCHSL

[2] = molecular target: Full-length myosin VI (non-insert isoform), recombinant, co-expressed with calmodulin (human | Xenopus) (UniProt Q9UM54)
[3] = molecular target: T1, NDP52; test: FRET or BRET; FITC-MVI_TAIL constructs and Alexa555-NDP52 (1 uM); 25 C, 50 mM Tris-HCl pH 7.5, 150 mM NaCl, 1 mM DTT
[4] = molecular target: Myosin VI tail (MVITAIL 814-1253) (human); test: FRET or BRET; AF555-labelled pool titrated against the FITC-labelled pool of the same construct, no additive; monomer to dimer; 25 C, 50 mM Tris-HCl pH 7.5, 150 mM NaCl, 1 mM DTT
[5] = molecular target: Myosin VI tail (MVITAIL 814-1253) (human); test: FRET or BRET; AF555-MVITAIL and FITC-MVITAIL in the presence of 20 uM DNA; monomer to dimer; 25 C, 50 mM Tris-HCl pH 7.5, 150 mM NaCl, 1 mM DTT
[6] = molecular target: Myosin VI tail (MVITAIL 814-1253) (human); test: FRET or BRET; AF555-labelled pool titrated against the FITC-labelled pool of the same construct in the presence of 20 uM NDP52; monomer to dimer; 25 C, 50 mM Tris-HCl pH 7.5, 150 mM NaCl, 1 mM DTT
[7] = molecular target: Myosin VI tail (MVITAIL 814-1253) (human); test: FRET or BRET; AF555-MVITAIL titrated against FITC-MVITAIL in the presence of 20 uM NDP52 and DNA; monomer to dimer; 25 C, 50 mM Tris-HCl pH 7.5, 150 mM NaCl, 1 mM DTT
[8] = molecular target: N-terminal tail domain of myosin VI (NMVITAIL 814-1060) (human); test: fluorescence polarisation; fluorescence anisotropy; unlabelled protein titrated against the FITC-labelled partner (NMVITAIL against FITC-CBD and CBD against FITC-NMVITAIL); 25 C, 50 mM Tris-HCl pH 7.5, 150 mM NaCl, 1 mM DTT
[9] = molecular target: N-terminal tail domain of myosin VI (NMVITAIL 814-1060) (human); test: FRET or BRET; AF555-labelled pool titrated against the FITC-labelled pool of the same construct, no additive; monomer to dimer; 25 C, 50 mM Tris-HCl pH 7.5, 150 mM NaCl, 1 mM DTT
[10] = molecular target: Cargo binding domain of myosin VI (CBD 1060-1253) (human); test: fluorescence polarisation; fluorescence anisotropy; unlabelled protein titrated against the FITC-labelled partner (NMVITAIL against FITC-CBD and CBD against FITC-NMVITAIL); 25 C, 50 mM Tris-HCl pH 7.5, 150 mM NaCl, 1 mM DTT
[11] = molecular target: Cargo binding domain of myosin VI (CBD 1060-1253) (human); test: FRET or BRET; Alexa555-NMVITAIL titrated to FITC-CBD (1 uM); 25 C, 50 mM Tris-HCl pH 7.5, 150 mM NaCl, 1 mM DTT; quadratic binding fit
[12] = molecular target: T1, NDP52; test: fluorescence intensity titration; FAM-DNA 50 nM; assay buffer, salt, pH and temperature not given in the material (duplex annealing in water or 50 mM Tris-HCl pH 7.5, 150 mM NaCl, 3 mM MgCl2); details: protein: recombinant; tags: His-tag (pET151), TEV-cleaved; chain copies: 2; label: 3' FAM on strand A; blunt
[13] = molecular target: MVITAIL(W1221A) (Human, UniProt Q9UM54-5 814-1253, W1221A); test: fluorescence anisotropy; FAM-DNA 50 nM; assay buffer, salt, pH and temperature not given in the material (duplex annealing in water or 50 mM Tris-HCl pH 7.5, 150 mM NaCl, 3 mM MgCl2); details: protein: recombinant; tags: His-tag (pET151), TEV-cleaved; label: 3' FAM on strand A; blunt
Chain of MVITAIL(W1221A) (Q9UM54 other isoform, or with tags, fused parts or gaps W1221A | W1221A W1221A): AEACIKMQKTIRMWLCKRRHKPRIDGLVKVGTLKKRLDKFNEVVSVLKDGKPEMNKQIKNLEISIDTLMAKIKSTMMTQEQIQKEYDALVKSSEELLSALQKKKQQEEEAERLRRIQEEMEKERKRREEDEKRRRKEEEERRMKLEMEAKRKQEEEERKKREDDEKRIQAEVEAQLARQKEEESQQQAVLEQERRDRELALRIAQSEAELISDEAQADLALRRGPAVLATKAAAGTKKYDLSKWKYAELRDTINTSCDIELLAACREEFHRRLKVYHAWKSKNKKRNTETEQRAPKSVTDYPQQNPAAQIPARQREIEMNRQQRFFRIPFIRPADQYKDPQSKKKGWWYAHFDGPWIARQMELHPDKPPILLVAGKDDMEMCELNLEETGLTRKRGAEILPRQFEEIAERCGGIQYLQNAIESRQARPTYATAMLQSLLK

[14] = molecular target: CBD (Human, UniProt Q9UM54-5 1060-1253); test: as above; details: protein: recombinant, tags: His-tag (pET28)
[15] = molecular target: MVITAIL (Human, UniProt Q9UM54-5 814-1253); test: as above; details: protein: recombinant; tags: His-tag (pET151), TEV-cleaved; label: 3' FAM on strand A; blunt
Chain of MVITAIL (Q9UM54 other isoform, or with tags, fused parts or gaps): as the sequence (Q9UM54 other isoform, or with tags, fused parts or gaps W1221A | W1221A W1221A) above, with A408W counted along it

[16] = molecular target: T2, NDP52 (recombinant) (UniProt Q13137 1-446, Alexa Fluor 555 label in the FRET titration with MVI_TAIL; unlabelled where added as a third component); test: FRET or BRET; FITC-MVI_TAIL constructs and Alexa555-NDP52 (1 uM); 25 C, 50 mM Tris-HCl pH 7.5, 150 mM NaCl, 1 mM DTT; details: both partners purified
T2 construct: NDP52 (SKICH domain, coiled-coil, two zinc fingers); also called Alexa555-NDP52; source: E. coli BL21 DE3, purified (HisTrap, Superdex 200)
T2 sequence (looked up): T1 sequence

[17] = molecular target: Myosin VI tail RRL/AAA mutant (MVITAIL RRL/AAA) (human); test: FRET or BRET; FITC-MVITAIL constructs and Alexa555-NDP52 (1 uM NDP52 by the legend of Fig. 4d); 25 C, 50 mM Tris-HCl pH 7.5, 150 mM NaCl, 1 mM DTT; quadratic binding fit
[18] = molecular target: Myosin VI tail RRL/RRA mutant (MVITAIL RRL/RRA, L1118A) (human); test: as above
[19] = molecular target: Myosin VI tail (MVITAIL 814-1253) (human); test: as above
[20] = molecular target: Myosin VI tail RRL/ARL mutant (MVITAIL RRL/ARL, R1116A) (human); test: as above
[21] = molecular target: Myosin VI tail, large insert (MVITAIL (large insert) 814-1284) (human); test: as above
[22] = label: 3' FAM on strand A, blunt

Molecule: Full-length myosin VI (non-insert isoform), recombinant, co-expressed with calmodulin (from UniProt Q9UM54-5 1-1253; P0DP33 1-149) (complex)
velocity of actin filaments in the sliding filament assay with MVI pre-incubated with / immobilised through NDP52 (0.1, 0.5 or 1 μM); two populations, 50–60 and 90 nm s^−1 [1]: 90 nm/s | steady-state actin-activated ATPase rate constant of MVI, reduction on addition of NDP52 [2]: 50%

Molecule: Cargo binding domain of myosin VI (CBD 1060-1253) (domain or fragment)
Kd [8]: 4.2 µM

B1: ds40 (dsDNA)
DNA 1: TTAGTTGTTCGTAGTGCTCGTCTGGCTCTGGATTACCCGC
DNA 2: GCGGGTAATCCAGAGCCAGACGAGCACTACGAACAACTAA
Kd [12]: 0.08 ± 0.025 µM | Kd [13]: 0.3 ± 0.03 µM | Kd [14, 22]: 0.1 µM | Kd [15]: 2.5 µM

Molecule: TTAGTTGTTCGTAGTGCTCGTCTGGCTCTGGATTACCCGC (ssDNA) [ss40]
Kd ([14]; label: 3' FAM): 0.12 ± 0.035 µM

B3: ds15 (15 bp) (dsDNA)
DNA 1: TTAGTTGTTCTCTGG
DNA 2: CCAGAGAACAACTAA
Kd [14, 22]: 0.5 ± 0.045 µM

Molecule: TCTGGCTCTGGATTACCCGC (ssDNA) [ss20]
Kd ([14]; label: 3' FAM): 0.11 ± 0.035 µM

Molecule: TTTTTTTTTTTTTTTTTTTT (ssDNA) [dT20]
Kd [14]: 0.12 ± 0.025 µM

The remaining lines, values ahead:

fold decrease in affinity against wild-type MVI TAIL [3]: 10 fold
Molecule: MVI_(TAIL) with the leucine of the RRL motif removed (RRA) (domain or fragment)

Kd [4]: 27 µM | Kd [5]: 29 µM | Kd [6]: 2.3 µM | Kd [7]: 2.5 µM
Molecule: Myosin VI tail (MVITAIL 814-1253) (domain or fragment)

Kd [9]: 3.1 µM | Kd [10]: 4 µM | Kd [11]: 4.5 µM
Molecule: N-terminal tail domain of myosin VI (NMVITAIL 814-1060) (domain or fragment)

fold reduction of binding against wild-type MVI_TAIL [16]: 4 fold
B2: MVI_(TAIL) (large insert) (domain or fragment)
chain: AEACIKMQKTIRMWLCKRRHKPRIDGLVKVGTLKKRLDKFNEVVSVLKDGKPEMNKQIKNLEISIDTLMAKIKSTMMTQEQIQKEYDALVKSSEELLSALQKKKQQEEEAERLRRIQEEMEKERKRREEDEKRRRKEEEERRMKLEMEAKRKQEEEERKKREDDEKRIQAEVEAQLARQKEEESQQQAVLEQERRDRELALRIAQSEAELISDEAQADLALRSLDSYPVTSKNDGTRPKMTPEQMAKEMSEFLSRGPAVLATKAAAGTKKYDLSKWKYAELRDTINTSCDIELLAACREEFHRRLKVYHAWKSKNKKRNTETEQRAPKSVTDYAQQNPAAQIPARQREIEMNRQQRFFRIPFIRPADQYKDPQSKKKGWWYAHFDGPWIARQMELHPDKPPILLVAGKDDMEMCELNLEETGLTRKRGAEILPRQFEEIWERCGGIQYLQNAIESRQARPTYATAMLQSLLK
modifications: FITC label

Kd [17]: 63 µM | Kd [18]: 21 µM | Kd [19]: 3.2 µM | Kd [20]: 4.6 µM | Kd [21]: 9.8 µM
B4: NDP52 (1-end) (natural protein)
chain: T1 sequence
modifications: Alexa Fluor 555 label (site not stated)
